Results as given in patent US7462691.

Target: recombinant secreted soluble PSCA with C-terminal 6XHis and MYC tag (human)
Experiment: SPR (BIAcore), recombinant PSCA immobilised at low density (30 RU), mAb in solution

Chain of recombinant secreted soluble PSCA with C-terminal 6XHis and MYC tag (human) (chain, as listed by the source): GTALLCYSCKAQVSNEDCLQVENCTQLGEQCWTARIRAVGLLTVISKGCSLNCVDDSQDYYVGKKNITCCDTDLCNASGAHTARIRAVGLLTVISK

Kd: 1 nM | kon: 168000 M⁻¹ s⁻¹
Substance: anti-PSCA monoclonal antibody 1G8
